Reference: paper PMC3821912

Biological target: areca nut (AN) peroxidase (Areca catechu L.)
Test: native gel or EMSA; native gel without heating or reducing agent; zymogram (20 mM guaiacol, 5 mM H2O2) and Coomassie staining; enzyme desalted with HEPES buffer (20 mM, pH 7.9); dimer to monomers

stoichiometry N: 2
Substance: areca nut (AN) peroxidase (enzyme)
